Several values for one entry are separate records, joined by “and”; a condition that tells them apart may be missing. Equal entries are not always repeated.
Molecular target: human IL-2 (human, UniProt P60568 21-153)
Experiment: FACS

B1: yeast-displayed 602 scFv (scFv, V domains shown)
VH: EVQLQESGPGLVAPSQSLSITCTVSGFSLTNYDISWIRQPPGKGLEWLGVIWTGGGTNYNSGFMSRLSITKDNSKSQVFLKMNSLQTDDTAIYYCVRQGRTPYWGQGTLVTVSA
VL: DIQVTQSPSSLSVSLGDRVTITCKASKDIYNRLAWYQQKPGNAPRLLISGATSLETGVPSRFSGSGSGKDYTLTITSLQTEDVATYYCQQFWGTPYTFGGGTKLEIK
EC50: 13.3 nM and 12.2 nM
